Data taken from patent publication US20240317834A1, “COMPOSITIONS AND METHODS FOR NEUROLOGICAL DISEASES” (CODA BIOTHERAPEUTICS, INC., priority 2020, published 2024).

System: Lenti-X 293T cells
Test: YFP fluorescence quenching anion reporter plate reader assay of engineered receptors stimulated with acetylcholine or a non-native ligand
Assay type: cell-based
Procedure, shortened: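 Lenti-X 293T cells carrying a YFP anion reporter were transiently transfected with channel DNA and assayed the next day in HEPES-buffered ECS at pH 7.2. Ligand (acetylcholine or non-native ligand) was added in NaI-substituted ECS. Percent quench was the mean of the last 10 s relative to the 15 s pre-addition baseline.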

B1: CODA409: engineered chimeric LGIC receptor, Y210W in SEQ ID NO: 33 (protein)
chain: MRCSPGGVWLALAASLLHVSLQGEFQRKLYKELVKNYNPLERPVANDSQPLTVYFSLSLLQIMDVDEKNQVLTTNIWLQMSWTDHYLQWNVSEYPGVKTVRFPDGQIWKPDILLYNSADERFDATFHTNVLVNSSGHCQYLPPGIFKSSCPMDLKNFPMDVQTCKLKFGSWSYGGWSLDLQMQEADISGYIPNGEWDLVGIPGKRSERFWECCKEPYPDVTFTVTMRRRMGYYLIQMYIPSLLIVILSWISFWINMDAAPARVGLGITTVLTMTTQSSGSRASLPKVSYVKAIDIWMAVCLLFVFSALLEYAAVNFVSRQHKELLRFRRKRRHHKSPMLNLFQEDEAGEGRFNFSAYGMGPACLQAKDGISVKGANNSNTTNPPPAPSKSPEEMRKLFIQRAKKIDKISRIGFPMAFLIFNMFYWIIYKIVRREDVHNQ
modifications: synthetic sequence of chimeric LGIC
YFP fluorescence quenching using CNL001 (1 nM CNL001, first column): −8.914% | YFP fluorescence quenching using CNL001 (1 nM CNL001, second column): −14.319% | YFP fluorescence quenching using TC-5619/Bradanicline (1 nM brd): −13.45% | YFP fluorescence quenching using TC-5619/Bradanicline (3 nM brd): −0.64% | YFP fluorescence quenching using Varenicline (3 nM var, first column): 7.776 | YFP fluorescence quenching using Varenicline (3 nM var, second column): −2.964 | YFP fluorescence quenching using CNL001 (10 nM CNL001, first column): −1.444% | YFP fluorescence quenching using CNL001 (10 nM CNL001, second column): 4.393% | YFP fluorescence quenching using TC-5619/Bradanicline (10 nM brd): 37.3% | YFP fluorescence quenching using TC-5619/Bradanicline (30 nM brd): 76.36% | YFP fluorescence quenching using Facinicline (30 nM fac): −10.93 | YFP fluorescence quenching using Varenicline (30 nM var, first column): −5.568 | YFP fluorescence quenching using Varenicline (30 nM var, second column): 3.024 | YFP fluorescence quenching using CNL001 (50 nM CNL001, first column): 11.897% | YFP fluorescence quenching using CNL001 (50 nM CNL001, second column): 11.434% | YFP fluorescence quenching using ABT-126 (50 nM abt): 8.23% | YFP fluorescence quenching using CNL001 (100 nM CNL001, first column): 12.719% | YFP fluorescence quenching using CNL001 (100 nM CNL001, second column): 16.053% | YFP fluorescence quenching using CNL002 (100 nM CNL002): −14.92% | YFP fluorescence quenching using ABT-126 (100 nM abt): 55.53% | YFP fluorescence quenching using AZD-0328 (100 nM azd0328): −6.57% | YFP fluorescence quenching using TC-5619/Bradanicline (100 nM brd): 72.72% | YFP fluorescence quenching using ABT-126 (300 nM abt): 74.82% | YFP fluorescence quenching using AZD-0328 (300 nM azd0328): −4.84% | YFP fluorescence quenching using TC-5619/Bradanicline (300 nM brd): 75.47% | YFP fluorescence quenching using Facinicline (300 nM fac): −5.82 | YFP fluorescence quenching using Varenicline (300 nM var, first column): 2.815 | YFP fluorescence quenching using Varenicline (300 nM var, second column): 3.06 | YFP fluorescence quenching using ABT-126 (500 nM abt): 77.39% | YFP fluorescence quenching using Varenicline (500 nM var, first column): 1.766 | YFP fluorescence quenching using Varenicline (500 nM var, second column): 2.819 | YFP fluorescence quenching using CNL001 (1 uM CNL001, first column): 14.077% | YFP fluorescence quenching using CNL001 (1 uM CNL001, second column): 15.495% | YFP fluorescence quenching using CNL002 (1 uM CNL002): −0.85% | YFP fluorescence quenching using ABT-126 (1 uM abt): 77.77% | YFP fluorescence quenching using TC-5619/Bradanicline (1 uM brd): 78.73% | YFP fluorescence quenching using TC-6987 (1 uM tc6987): 62.82 | YFP fluorescence quenching using Varenicline (1 uM var, first column): 1.844 | YFP fluorescence quenching using Varenicline (1 uM var, second column): −4.059 | YFP fluorescence quenching using ABT-126 (3 uM abt): 69.33% | YFP fluorescence quenching using ABT-126 (10 uM abt): 74.79% | YFP fluorescence quenching using Facinicline (10 uM fac): 60.97 | YFP fluorescence quenching using TC-6987 (10 uM tc6987): 78.66 | YFP fluorescence quenching using CNL002 (30 uM CNL002): 29.62% | YFP fluorescence quenching using ABT-126 (30 uM abt): 75.61% | YFP fluorescence quenching using AZD-0328 (30 uM azd0328): 81.64% | YFP fluorescence quenching using Facinicline (30 uM fac): 57.77 | YFP fluorescence quenching using ABT-126 (50 uM abt): 75.72% | YFP fluorescence quenching using ABT-126 (100 uM abt): 78.52% | YFP fluorescence quenching using TC-6987 (500 uM tc6987): 70.35 | percent quench of YFP fluorescence, 10 uM ach (acetylcholine 10 uM): −5.43% | percent quench of YFP fluorescence, 100 uM ach (acetylcholine 100 uM): 17.14% | percent quench of YFP fluorescence, 1 mM ach (acetylcholine 1 mM): 78.84% | percent quench of YFP fluorescence, 3 mM ach (acetylcholine 3 mM): 78.55%
